According to patent US20150203577A1 (Chugai, published 2015):
Substitutions are numbered along the chain they refer to.

T1: mouse FcγRII (mouse, UniProt P08101 30-210)
T1 construct: Extracellular domain with C-terminal His tag; also called mFcγRII; mFcgRII
T1 sequence: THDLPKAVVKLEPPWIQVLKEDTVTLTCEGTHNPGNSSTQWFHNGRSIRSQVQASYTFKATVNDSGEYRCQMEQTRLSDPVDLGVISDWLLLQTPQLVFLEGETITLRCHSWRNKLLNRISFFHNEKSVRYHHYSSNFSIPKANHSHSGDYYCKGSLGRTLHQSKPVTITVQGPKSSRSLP

T2: mouse FcγRIII (mouse, UniProt P08508 31-215)
T2 construct: Extracellular domain with C-terminal His tag; also called mFcγRIII; mFcgRIII
T2 chain: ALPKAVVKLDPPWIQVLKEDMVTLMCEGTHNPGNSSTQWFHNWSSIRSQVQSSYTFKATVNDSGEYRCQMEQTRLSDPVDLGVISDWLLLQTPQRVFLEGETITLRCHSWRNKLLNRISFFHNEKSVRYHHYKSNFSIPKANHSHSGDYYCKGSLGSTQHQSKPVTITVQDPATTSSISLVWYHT

T3: mouse FcγRII (mouse, UniProt P08101 30-210)
T3 construct: also called mFcγRII; mFcgRII
T3 sequence: T1 sequence

T4: mouse FcγRIII (mouse, UniProt P08508 31-215)
T4 construct: also called mFcγRIII; mFcgRIII
T4 chain: T2 chain

B1: MB864 (antibody, mouse IgG1, kappa)
heavy: QVQLQESGPGLVKPSETLSLTCAVSGHSISHDHAWSWVRQPPGEGLEWIGFISYSGITNYNPSLQGRVTISRDNSKNTLYLQMNSLRAEDTAVYYCARSLARTTAMDYWGEGTLVTVSSAKTTPPSVYPLAPGSAAQTNSMVTLGCLVKGYFPEPVTVTWNSGSLSSGVHTFPAVLQSDLYTLSSSVTVPSSTWPSETVTCNVAHPASSTKVDKKIVPRDCGCKPCICEPNEVELVFIFPPKPKDVLTITLTPKVTCVVVDISDDDPEVQFSWFVDDVEVHTAQTQPREEQFNSTFRSVSELPIMHQDWLNGKEFKCRVNSDGFPAPIERTISKTKGRPKAPQVYTIPPPKEQMAKDKVSLTCMITDFFPEDITVEWQWNGQPAENYKNTQPIMDTDGSYFVYSKLNVQKSNWEAGNTFTCSVLHEGLHNHHTEKSLSHSPGK
light: not shown
notes: CH name; VH H237 + CH, L chain MRAL-k0; copies: 2 + 2
B2: H237-MB637/MRAL-k0 (antibody, mouse IgG1, kappa)
heavy: B1 heavy with N231A, L235N, D264K, D322A, G323A, R330K
light: not shown
notes: mouse IgG1 CH variant; copies: 2 + 2
B3: H237-MB702/MRAL-k0 (antibody, mouse IgG1, kappa)
heavy: B1 heavy with E229T, P230A, N231Y, L235N, D264K, D322A, G323A, R330K
light: not shown
notes: as for B2
B4: H237-MB715/MRAL-k0 (antibody, mouse IgG1, kappa)
heavy: B1 heavy with L235V, D264K, D322A, G323A, R330K
light: not shown
notes: as for B2
B5: H237-MB703/MRAL-k0 (antibody, mouse IgG1, kappa)
heavy: B1 heavy with P230A, N231P, L235N, D264K, D322A, G323A, R330K
light: not shown
notes: as for B2
B6: H237-MB633/MRAL-k0 (antibody, mouse IgG1, kappa)
heavy: B1 heavy with P230D, N231Y, L235N, D264K, D322A, G323A, R330K
light: not shown
notes: as for B2
B7: H237-MB687/MRAL-k0 (antibody, mouse IgG1, kappa)
heavy: B1 heavy with N231P, D264K, D322A, G323A, R330K
light: not shown
notes: as for B2
B8: H237-MB718/MRAL-k0 (antibody, mouse IgG1, kappa)
heavy: B1 heavy with L235T, D264K, D322A, G323A, R330K
light: not shown
notes: as for B2
B9: H237-MB692/MRAL-k0 (antibody, mouse IgG1, kappa)
heavy: B1 heavy with N231P, L235Y, D264K, D322A, G323A, R330K
light: not shown
notes: as for B2
B10: H237-MB693/MRAL-k0 (antibody, mouse IgG1, kappa)
heavy: B1 heavy with E229T, P230D, N231Y, L235Y, D264K, D322A, G323A, R330K
light: not shown
notes: as for B2
B11: H237-MB690/MRAL-k0 (antibody, mouse IgG1, kappa)
heavy: B1 heavy with E229T, N231A, L235Y, D264K, D322A, G323A, R330K
light: not shown
notes: as for B2
B12: H237-MB607/MRAL-k0 (antibody, mouse IgG1, kappa)
heavy: B1 heavy with E229T, P230V, N231P, V233E, L235E, D264K, D322A, G323A, R330K
light: not shown
notes: as for B2
B13: H237-MB641/MRAL-k0 (antibody, mouse IgG1, kappa)
heavy: B1 heavy with P230A, N231Y, L235Y, D264K, D322A, G323A, R330K
light: not shown
notes: as for B2
B14: H237-MB647/MRAL-k0 (antibody, mouse IgG1, kappa)
heavy: B1 heavy with E229I, N231A, L235Y, D264K, D322A, G323A, R330K
light: not shown
notes: as for B2
B15: H237-MB618/MRAL-k0 (antibody, mouse IgG1)
heavy: B1 heavy with E229T, P230V, N231P, V233E, E234D, L235D, D264K, D322A, G323A, R330K
light: not shown
notes: as for B2
B16: H237-MB638/MRAL-k0 (antibody, mouse IgG1, kappa)
heavy: B1 heavy with E229I, N231A, L235N, D264K, D322A, G323A, R330K
light: not shown
notes: as for B2
B17: H237-MB611/MRAL-k0 (antibody, mouse IgG1, kappa)
heavy: B1 heavy with E229T, P230V, N231P, V233E, E234D, L235E, D264K, D322A, G323A, R330K
light: not shown
notes: as for B2
B18: H237-MB643/MRAL-k0 (antibody, mouse IgG1, kappa)
heavy: B1 heavy with P230N, N231Y, L235Y, D264K, D322A, G323A, R330K
light: not shown
notes: as for B2
B19: H237-MB626/MRAL-k0 (antibody, mouse IgG1, kappa)
heavy: B1 heavy with P230T, N231Y, D264K, D322A, G323A, R330K
light: not shown
notes: as for B2
B20: MB865 (antibody, mouse IgG1, kappa)
heavy: B1 heavy with Q291L, R330K
light: not shown
notes: as for B1
B21: H237-MB716/MRAL-k0 (antibody, mouse IgG1, kappa)
heavy: B1 heavy with L235I, D264K, D322A, G323A, R330K
light: not shown
notes: as for B2
B22: H237-MB624/MRAL-k0 (antibody, mouse IgG1, kappa)
heavy: B1 heavy with P230D, N231Y, D264K, D322A, G323A, R330K
light: not shown
notes: as for B2
B23: H237-MB617/MRAL-k0 (antibody, mouse IgG1, kappa)
heavy: QVQLQESGPGLVKPSETLSLTCAVSGHSISHDHAWSWVRQPPGEGLEWIGFISYSGITNYNPSLQGRVTISRDNSKNTLYLQMNSLRAEDTAVYYCARSLARTTAMDYWGEGTLVTVSSAKTTPPSVYPLAPGSAAQTNSMVTLGCLVKGYFPEPVTVTWNSGSLSSGVHTFPAVLQSDLYTLSSSVTVPSSTWPSETVTCNVAHPASSTKVDKKIVPRDCGCKPCICTVPEESDVDIFPPKPKDVLTITLTPKVTCVVVDISKDDPEVQFSWFVDDVEVHTAQTQPREEQFNSTFRSVSELPIMHQDWLNGKEFKCRVNSAAFPAPIEKTISKTKGRPKAPQVYTIPPPKEQMAKDKVSLTCMITDFFPEDITVEWQWNGQPAENYKNTQPIMDTDGSYFVYSKLNVQKSNWEAGNTFTCSVLHEGLHNHHTEKSLSHSPGK
light: not shown
notes: as for B2

Legend:
mouse FcγRII [1] = biological target: T1, mouse FcγRII; assay: SPR (Biacore T200); KD of H237-mIgG1/MRAL-k0 / KD of variant
mouse FcγRIII [2] = biological target: T2, mouse FcγRIII; assay: as above
mouse FcγRII [3] = biological target: T1, mouse FcγRII; assay: SPR (Biacore T200); KD of H237-MB630/MRAL-k0 / KD of variant
mouse FcγRIII [4] = biological target: T2, mouse FcγRIII; assay: as above
mouse FcγRII [5] = biological target: T3, mouse FcγRII; assay: SPR (Biacore), antibody captured on Protein L, mFcγR as analyte
Procedure: (§1) Each altered antibody was analyzed for its interaction with each Fcγ receptor prepared above using Biacore T100 (GE Healthcare Japan Corp.), Biacore T200 (GE Healthcare Japan Corp.), Biacore A100, or Biacore 4000. The running buffer used was HBS-EP+ (GE Healthcare Japan Corp.). The assay temperature was set to 25° C. The sensor chips used were chips prepared by immobilizing Protein L (ACTIGEN or BioVision) onto Series S Sensor Chip CM5 (GE Healthcare Japan Corp.) or Series S Sensor Chip CM4 (GE Healthcare Japan Corp.) by the amine coupling method.
(§2) In order to calculate the KD value of each altered antibody for FcγR, kinetic analysis was conducted according to the following method: first, the antibody of interest was captured onto any of these chips and allowed to interact with mFcγR diluted with a running buffer. For the obtained sensorgram, the assay results were globally fit into the 1:1 Langmuir binding model using Biacore Evaluation Software to calculate an association rate constant ka (L/mol/s) and a dissociation rate constant kd (1/s). From these values, the dissociation constant KD (mol/L) was calculated.

mouse FcγRIII [6] = biological target: T4, mouse FcγRIII; assay: as above
Procedure: as §1, §2

| Binder | relative mFcγRII-binding activity (mIgG1 = 1) (mouse FcγRII [1]) [fold] | relative mFcγRIII-binding activity (mIgG1 = 1) (mouse FcγRIII [2]) [fold] | Relative mFcγRII-binding activity (MB630 = 1) (mouse FcγRII [3]) [fold] | Relative mFcγRIII-binding activity (MB630 = 1) (mouse FcγRIII [4]) [fold] | Kd (mouse FcγRII [5]) [nM] | relative mFcγRII-binding activity (mIgG1 = 1) (mouse FcγRII [5]) [fold] | Kd (mouse FcγRIII [6]) [nM] | relative mFcγRIII-binding activity (mIgG1 = 1) (mouse FcγRIII [6]) [fold] |
| --- | --- | --- | --- | --- | --- | --- | --- | --- |
| B1 | 110 | 3.63 | 10.4 | 19.9 | – | – | – | – |
| B2 | – | – | – | – | 80.7 | 2.87 | 1890 | 0.17 |
| B3 | – | – | – | – | 339 | 0.96 | 3520 | 0.14 |
| B4 | – | – | – | – | 236 | 1.14 | 11900 | 0.04 |
| B5 | – | – | – | – | 345 | 0.94 | 4900 | 0.1 |
| B6 | – | – | – | – | 75.8 | 3.05 | 1640 | 0.2 |
| B7 | – | – | – | – | 345 | 0.94 | 5320 | 0.1 |
| B8 | – | – | – | – | 247 | 1.08 | 5560 | 0.08 |
| B9 | – | – | – | – | 186 | 1.75 | 4440 | 0.12 |
| B10 | – | – | – | – | 267 | 1.22 | 5410 | 0.09 |
| B11 | – | – | – | – | 204 | 1.6 | 2710 | 0.19 |
| B12 | – | – | – | – | 67.9 | 3.14 | 1770 | 0.18 |
| B13 | – | – | – | – | 143 | 1.62 | 2100 | 0.15 |
| B14 | – | – | – | – | 200 | 1.16 | 2800 | 0.12 |
| B15 | – | – | – | – | 156 | 1.63 | 2730 | 0.13 |
| B16 | – | – | – | – | 280 | 0.83 | 3380 | 0.1 |
| B17 | – | – | – | – | 192 | 1.11 | 3420 | 0.09 |
| B18 | – | – | – | – | 126 | 1.83 | 2000 | 0.16 |
| B19 | – | – | – | – | 261 | 0.89 | 2370 | 0.14 |
| B20 | 83.8 | 3.34 | 7.91 | 18.3 | – | – | – | – |
| B21 | – | – | – | – | 52.8 | 5.07 | 6150 | 0.08 |
| B22 | – | – | – | – | 263 | 0.88 | 2870 | 0.11 |
| B23 | – | – | – | – | 255 | 0.84 | 2100 | 0.15 |
